Patent US20240307509A1, “PLACENTAL ALKALINE PHOSPHATASE FOR STARTING EARLY TREATMENT OF CANCER PATIENTS EXHIBITING NO DETECTABLE LOSS OF BODY AND MUSCLE WEIGHT AS YET TO PREVENT OR REDUCE THE LOSS OF MUSCLE PROTEINS” (MNPHARM SBC, priority 2021, published 2024)
Values joined by “and” are separate entries in the source; they are usually repeats but may differ in a detail not shown here. Equal values may be shown once.

Experiments:
[1] = tested on: L6 myoblasts; experiment: Proliferation of L6 myoblasts in the presence of myostatin (MTT assay); format: cell-based; settings: 96 hours
Description: In this experiment, L6 myoblasts were seeded in 10% serum containing Dulbecco's modified Eagles (DMEM) medium in 96-well plates (n=8 for each treatment). After 24 hours at 30% confluence, the medium was changed to 2% serum-containing medium (0 time) and then treated with 0.25 μg/ml or 1 ug/ml myostatin (MSTN-from the R&D Systems-catalog no. 788-GB-010) in the absence or presence of 25 nM, 100 nM, or 200 nM PLAP for 96 hours. The relative number of viable cells (A540) was determined by the MTT assay [Carmichael, J, De Graff, W.G., Gazdar, A.F., Minna, J.D. and Mitchell, J.B. Evaluation of tetrazolium-based semiautomated colorimetric assay: Assessment of chemosensitivity testing. Cancer Res. 47, 936-942, 1987]. The value measured at 0 time is subtracted from the 96-hour values.

[2] = tested on: T47D human estrogen receptor positive breast carcinoma; experiment: Tumor growth and survival of Cyp treated mice bearing T47D breast carcinoma; format: in vivo
Description: T47D estrogen receptor positive human breast cancer cells were from American Tissue Culture Collection (10801 University Boulevard, Manassas, Virginia, 20110-2209, United States).
First generation hybrid BDF1 (C57BL female x DBA/2 male) 6 weeks old, weighing 22-23 grams, specified pathogen free (SPF) hygienic category colonies were used. The animals were kept in macrolon cage at 22-24 0 C° (45-55% humidity), with a lightning regimen of 12/12 h light/dark. The animals had free access to tap water and were fed with a sterilized standard diet (Charles River VRF1, autoclavable, Germany) ad libitum.
T47D mammary tumor pieces (maintained in mouse tail, containing about 1.5×10^6 tumor cells) were implanted subcutaneously into the intrascapular region to develop the tumors. After 15 days, when the tumor-bearing mice were first treated, the sizes of the tumors were in the 0.27-0.34 cm^3 range. PLAP and Cyp were dissolved in 0.9% sodium chloride and applied subcutaneously (PLAP) or intraperitoneally (Cyp) in 50 μl volume. In the first group (n=7), animals received no treatment. In the second group (n=7), mice were administered 120-mg/kg of Cyp on day 15 followed by eleven consecutive treatments on every second day (days 17, 19, 21, 23, 25, 27, 29, 31, 35, 37, and 39) with the same dose. In the third group (n=7), treatment with Cyp (on the same days as in group 2) was accompanied by administration of 7.5 mg per kg of PLAP on days 15, 20, 25, 30, 35, and 40. Tumor volume was measured on days 15, 18, 21, 24, 27, 31, 35, 40, and 46, and body weight was measured on day 46. Then the animals were kept without additional treatment to determine survival rates.

[3] = tested on: T47D human breast cancer tumor; experiment: Skeletal muscle proteins in the Cyp treated human T47D tumor model; format: in vivo, mice; settings: gastrocnemius, day 28; PLAP 7.5 mg per kg subcutaneously days 14, 17, 20, 23, 26; Cyp intraperitoneally days 15-27 every second day
Description: PLAP and Cyp were dissolved in 0.9% sodium chloride and applied subcutaneously (PLAP) or intraperitoneally (Cyp) in […] volume. […] In the fourth and fifth groups mice also received Cyp on days 15, 17, 19, 21, 23, 25, and 27. On day 28, body weights were measured first followed by determining the tumor volumes. After the mice were put to death under anesthesia, the gastrocnemius muscles were excised to determine total proteins by using a Sigma kit.

[4] = tested on: L6 myoblasts; experiment: Proliferation of L6 myoblasts with or without IGF-1 (MTT assay); format: cell-based; settings: serum-free medium, 72 hours; IGF-1 50 nM, rPLAP 150 nM, PLAP 150 nM
Description: L6 myoblasts were grown in 96-well plates in 10% FBS containing DMEM up to 30% confluency. Then the medium was changed to serum-free medium, and after 2 hours, cells were treated with IGF-1 (50 nM), or rPLAP (150 nM), or PLAP (150 nM) in the absence or presence of IGF-1 for 72 hours, followed by the MTT assay (absorbance; A540) as described by others assay [Carmichael, J, De Graff, W.G., Gazdar, A.F., Minna, J.D. and Mitchell, J.B. Evaluation of tetrazolium-based semiautomated colorimetric assay: Assessment of chemosensitivity testing. Cancer Res. 47, 936-942, 1987].

[5] = tested on: PC-3 human prostate adenocarcinoma tumor; experiment: Subcutaneously administered PLAP in the cachectic PC-3 mouse tumor model; format: in vivo, mice; settings: day 28
From the text: PC-3 human prostate cancer cell-derived aggressive tumors are cachectic depending on the mouse strain used for tumor development. In the following experiment, a cachectic mouse model of human prostate tumor was used.
PC-3 human prostate adenocarcinoma tissue pieces (0.1 cm^3 volume) were implanted subcutaneously into the intrascapular region of 6 weeks old female mice [homozygous line of C.B .-171cr scid/scid] to develop the tumors. The mice were kept at specified pathogen free (SPF) hygienic levels. In the first group of mice (7 mice), no tumors were developed (tumor free control). In the second group of mice (7 mice), tumors were developed but remained untreated. In the third group of mice (7 mice), on days 8, 11, 14, 17, 21 and 25 after transplantation of PC-3 tumors, mice were administered 4 mg/kg of PLAP subcutaneously. The weight and total protein content of m. gastrocnemius (using a protein determination kit from Sigma), tumor weight, lean body weight (total weight minus tumor weight), and the weight of abdominal fat tissue were determined on day 28 (after tumor transplantation).

[6] = Spectrophotometric assay of PLAP enzyme activity; format: biochemical; settings: 10 mM 4-nitrophenylphosphate, 22° C., pH 9.8; 1 U = 1 umole substrate hydrolyzed/min
Description: PLAP as determined by sodium dodecyl sulfate-polyacrylamide gel electrophoresis (SDS-PAGE). The enzyme activity of PLAP was assayed using a spectroscopic method to monitor the hydrolysis of 4-nitrophenylphosphate (as an increase in absorbance at 410 nm) at room temperature (22° C.) as described in [Chang, G.-G., Shiao, M.-S., Lec, K.-R. and Wu, J.-J., Modification of human placental alkaline phosphatase by periodate-oxidized 1,N6-ethenoadenosine monophosphate. Biochem. J., 272, 683-690, 1990]. Activity analysis of 5-10-μg purified enzyme was performed in 1 mI. incubation volume containing 50 mM Na2CO3/NaHCO3, 10 mM MgCl2, 10 mM 4-nitrophenylphosphate at pII 9.8. The extinction coefficient of 4-nitrophenol was taken as 1.62×10^4 M^−1 cm^−1. An enzyme activity of I U (unit) is defined as 1 umole substrate hydrolyzed/min at 22° C. at pH 9.8. The pure PLAP was further identified by sequence analysis performed by the Mayo Clinic Protein Core Facility (Rochester, MN, US). The specific activity of purified PLAP was 685 Units per mg protein.

[7] = ATP as substrate of alkaline phosphatases (unpublished data); format: biochemical; settings: compared to IALP or TNAP
From the text: This invention can also use an alkaline phosphatase (AP) which is a hybrid derivative of two APs. For example, in such a hybrid one critical segment may originate from PLAP accounting for the heat stability, and another segment may originate from a different AP accounting for a higher catalytic phosphatase activity or another useful property. As an example, envisioned in the disclosure, such hybrid may contain up to roughly 50% of the sequence of PLAP providing stability, and up to roughly 50% of the sequence of another human AP providing the catalytic alkaline phosphatase activity. The rationale for using such hybrid is that of the APs, PLAP has by far the greatest stability in the circulation, while other APs may have greater catalytic activities towards some specific substrates.

[8] = purified PLAP, literature (Clubb et al. 1965); cited from earlier work
[9] = Cyp 120 mg/kg intraperitoneally, PLAP 7.5 mg/kg subcutaneously
[10] = numbers in parentheses, n=7 per group
[11] = m. gastrocnemius, PLAP 4 mg/kg subcutaneously on days 8, 11, 14, 17, 21, 25

Myostatin: myostatin (MSTN) from R&D Systems, catalog no. 788-GB-010 [reference compound]
L6 myoblast proliferation minus 0-time value (A540) ([1]; Myostatin 0.25 μg/ml, no PLAP, 2% serum): 0.214 ± 0.032 A540
L6 myoblast proliferation minus 0-time value (A540) ([1]; Myostatin 1.0 μg/ml, no PLAP, 2% serum): 0.175 ± 0.030 A540

O.O=P1(N(CCCl)CCCl)NCCCO1 (centres unmarked) [Cyp, 2-[Bis (2-chloroethyl)amino] tetrahydro-2H-1,3,2-oxazaphosphorine 2-oxide monohydrate]
Tumor volume Day 18 ([2]; Cyp 120 mg/kg intraperitoneally every second day from day 15, PLAP 7.5 mg/kg subcutaneously every 5 days): 0.33 ± 0.11 cm^3
Tumor volume Day 21 [2, 9]: 0.56 ± 0.10 cm^3
Tumor volume Day 24 [2, 9]: 0.72 ± 0.20 cm^3
Tumor volume Day 27 [2, 9]: 0.91 ± 0.22 cm^3
Tumor volume Day 31 [2, 9]: 1.06 ± 0.17 cm^3
Tumor volume Day 35 [2, 9]: 1.22 ± 0.32 cm^3
Tumor volume Day 40 [2, 9]: 1.68 ± 0.29 cm^3
Tumor volume Day 46 [2, 9]: 1.82 ± 0.24 cm^3
Survival Mean ([2]; T47D tumor bearing animals, n=7, monohydrate): 49 days and 49.3 days
body weight less compared to the untreated group ([2]; body weight measured on day 46): 1.4%
Tumor volume Day 15 ([2]; day of first treatment, Cyp 120 mg/kg intraperitoneally, PLAP 7.5 mg/kg subcutaneously): 0.30 ± 0.11 cm^3
number of mice alive Day 35 [2, 10]: 7
number of mice alive Day 40 [2, 10]: 7
number of mice alive Day 46 [2, 10]: 5
Survival % ([2]; relative to untreated (None = 100)): 129%
Total Muscle Protein [3]: 11.31 ± 0.43 mg per 100 mg of muscle weight

IGF-1: insulin like growth factor-1 [reference compound]
L6 myoblast proliferation (A540) (minus 0-time value) [4]: 0.280 ± 0.030 A540

B1: PLAP: highly purified native placental alkaline phosphatase derived from human placenta via conventional purification methods (protein, UniProt P05187 23-506, looked up)
Alkaline phosphatase, …: IIPVEEENPDFWNREAAEALGAAKKLQPAQTAAKNLIIFLGDGMGVSTVTAARILKGQKKDKLGPEIPLAMDRFPYVALSKTYNVDKHVPDSGATATAYLCGVKGNFQTIGLSAAARFNQCNTTRGNEVISVMNRAKKAGKSVGVVTTTRVQHASPAGTYAHTVNRNWYSDADVPASARQEGCQDIATQLISNMDIDVILGGGRKYMFRMGTPDPEYPDDYSQGGTRLDGKNLVQEWLAKRQGARYVWNRTELMQASLDPSVTHLMGLFEPGDMKYEIHRDSTLDPSLMEMTEAALRLLSRNPRGFFLFVEGGRIDHGHHESRAYRALTETIMFDDAIERAGQLTSEEDTLSLVTADHSHVFSFGGYPLRGSSIFGLAPGKARDRKAYTVLLYGNGPGYVLKDGARPDVTESESGSPEYRQQSAVPLDEETHAGEDVAVFARGPQAHLVHGVQEQTFIAHVMAFAACLEPYTACDLAPPAGTTD
inhibition of tumor growth ([5]; PLAP 4 mg/kg subcutaneously): 32%
loss of lean body weight ([5]; PLAP treated tumor (41% in untreated)): 18%
loss of abdominal fat tissue ([5]; PLAP treated tumor (46% in untreated)): 12%
Tumor Weight ([5]; PLAP 4 mg/kg subcutaneously): 2.9 ± 0.4 g
Muscle Mass [5, 11]: 93 ± 9 mg
Muscle Protein [5, 11]: 13.3 ± 1.3 mg/100 mg of muscle weight
Lean Body Weight ([5]; total weight minus tumor weight, PLAP 4 mg/kg subcutaneously): 25.9 ± 2.8 g
Abdominal Fat Tissue ([5]; weight, PLAP 4 mg/kg subcutaneously): 0.66 ± 0.07 g
specific activity [6]: 685 Units per mg protein
L6 myoblast proliferation (A540) (minus 0-time value) [4]: 0.267 ± 0.025 A540
ATP as substrate [7]: weak substrate
L6 myoblast proliferation minus 0-time value (A540) ([1]; PLAP 25 nM, Myostatin 0.25 μg/ml): 0.325 ± 0.038 A540
L6 myoblast proliferation minus 0-time value (A540) ([1]; PLAP 25 nM, Myostatin 1.0 μg/ml): 0.300 ± 0.023 A540
L6 myoblast proliferation minus 0-time value (A540) ([1]; PLAP 25 nM, No Myostatin): 0.410 ± 0.025 A540
L6 myoblast proliferation minus 0-time value (A540) ([1]; PLAP 100 nM, Myostatin 0.25 μg/ml): 0.430 ± 0.024 A540
L6 myoblast proliferation minus 0-time value (A540) ([1]; PLAP 100 nM, Myostatin 1.0 μg/ml): 0.402 ± 0.027 A540
L6 myoblast proliferation minus 0-time value (A540) ([1]; PLAP 100 nM, No Myostatin): 0.541 ± 0.022 A540
L6 myoblast proliferation minus 0-time value (A540) ([1]; PLAP 200 nM, Myostatin 0.25 μg/ml): 0.542 ± 0.069 A540
L6 myoblast proliferation minus 0-time value (A540) ([1]; PLAP 200 nM, Myostatin 1.0 μg/ml): 0.500 ± 0.033 A540
L6 myoblast proliferation minus 0-time value (A540) ([1]; PLAP 200 nM, No Myostatin): 0.707 ± 0.032 A540
half-life time in human circulation [8]: about 7 days
Total Muscle Protein [3]: 13.20 ± 0.38 mg per 100 mg of muscle weight
